# Data: article PMC5001929 (Cell reports, 2016)
# T1: Gremlin-2 (UniProt O88273 22-168)
# T1 sequence: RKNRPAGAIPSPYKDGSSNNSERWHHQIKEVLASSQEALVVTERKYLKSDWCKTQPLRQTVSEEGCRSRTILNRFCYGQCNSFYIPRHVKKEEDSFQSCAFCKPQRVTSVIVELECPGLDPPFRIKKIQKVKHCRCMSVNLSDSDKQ
# Target: T1, Gremlin-2
# Test: SPR
binder,measurement,value
"BMP2 (ligand, UniProt P12643 283-396, looked up) QAKHKQRKRLKSSCKRHPLYVDFSDVGWNDWIVAPPGYHAFYCHGECPFPLADHLNSTNHAIVQTLVNSVNSKIPKACCVPTELSAISMLYLDENEKVVLKNYQDMVVEGCGCR",Kd,9 nM
"GDF5 (ligand, UniProt P43026 382-501, looked up) APLATRQGKRPSKNLKARCSRKALHVNFKDMGWDDWIIAPLEYEAFHCEGLCEFPLRSHLEPTNHAVIQTLMNSMDPESTPPTCCVPTRLSPISILFIDSANNVVYKQYEDMVVESCGCR",Kd,146 nM
